Laboratory results: US20220289855A1 (University of California, published 2022)

Target: T1, integrin α4β1 (mouse, UniProt Q00651 41-1039; P09055 21-798)
T1 construct: whole, on cells
Assay: flow cytometry, soluble ligand on mouse Tregs
Protocol: Splenic lymphocytes were isolated from Foxp3^GFP mice and were washed and resuspended in HBSS containing 0.1% BSA and 1 mM Ca²⁺/Mg²⁺, prior to incubation with integrin ligands for […] at 37° C. in the presence of IL-2 (10 ug/ml), rat-PC61 (5 ug/ml, Bioxcell), rat-rIgG (5 ug/ml, Bioxcell), murine-PC61 (5 ug/ml) and murine-IgG (5 ug/ml, Bioxcell). Cells were then incubated with AlexFluor647-conjugated anti-human IgG (1:200) for […] at 4° C. Then cells were washed twice before flow cytometry analysis using an Accuri C6 Plus (BD Biosciences). Data were analyzed using FlowJo software.

T1 sequence (Q00651 41-1039, chain 1 of 2): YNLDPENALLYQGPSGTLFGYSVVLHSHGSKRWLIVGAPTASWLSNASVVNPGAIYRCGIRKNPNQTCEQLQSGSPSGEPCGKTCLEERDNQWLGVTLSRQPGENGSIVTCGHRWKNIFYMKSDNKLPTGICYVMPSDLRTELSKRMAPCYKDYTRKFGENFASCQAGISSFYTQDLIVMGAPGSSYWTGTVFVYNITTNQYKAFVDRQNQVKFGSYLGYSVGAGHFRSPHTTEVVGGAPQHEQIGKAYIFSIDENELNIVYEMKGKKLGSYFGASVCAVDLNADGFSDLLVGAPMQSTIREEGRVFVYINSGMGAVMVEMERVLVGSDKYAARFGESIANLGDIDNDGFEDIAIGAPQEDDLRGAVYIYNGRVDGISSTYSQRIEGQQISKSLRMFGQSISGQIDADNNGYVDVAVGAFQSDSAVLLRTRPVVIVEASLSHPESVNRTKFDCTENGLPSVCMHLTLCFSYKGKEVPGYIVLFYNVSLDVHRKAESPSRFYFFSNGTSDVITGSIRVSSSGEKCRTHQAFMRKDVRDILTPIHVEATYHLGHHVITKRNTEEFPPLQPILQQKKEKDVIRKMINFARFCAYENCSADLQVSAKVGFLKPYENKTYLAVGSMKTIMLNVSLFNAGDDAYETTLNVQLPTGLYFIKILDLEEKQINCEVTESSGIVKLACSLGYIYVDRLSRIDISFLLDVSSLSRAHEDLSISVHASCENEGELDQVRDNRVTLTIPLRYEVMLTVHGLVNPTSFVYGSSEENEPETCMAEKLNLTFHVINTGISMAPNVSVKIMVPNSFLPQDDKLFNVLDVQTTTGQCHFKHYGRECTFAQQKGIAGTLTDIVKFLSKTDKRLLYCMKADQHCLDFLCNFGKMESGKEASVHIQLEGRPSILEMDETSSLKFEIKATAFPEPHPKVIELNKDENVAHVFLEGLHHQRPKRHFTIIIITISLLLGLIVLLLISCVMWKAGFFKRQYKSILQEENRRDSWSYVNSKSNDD
T1 sequence (P09055 21-798, chain 2 of 2): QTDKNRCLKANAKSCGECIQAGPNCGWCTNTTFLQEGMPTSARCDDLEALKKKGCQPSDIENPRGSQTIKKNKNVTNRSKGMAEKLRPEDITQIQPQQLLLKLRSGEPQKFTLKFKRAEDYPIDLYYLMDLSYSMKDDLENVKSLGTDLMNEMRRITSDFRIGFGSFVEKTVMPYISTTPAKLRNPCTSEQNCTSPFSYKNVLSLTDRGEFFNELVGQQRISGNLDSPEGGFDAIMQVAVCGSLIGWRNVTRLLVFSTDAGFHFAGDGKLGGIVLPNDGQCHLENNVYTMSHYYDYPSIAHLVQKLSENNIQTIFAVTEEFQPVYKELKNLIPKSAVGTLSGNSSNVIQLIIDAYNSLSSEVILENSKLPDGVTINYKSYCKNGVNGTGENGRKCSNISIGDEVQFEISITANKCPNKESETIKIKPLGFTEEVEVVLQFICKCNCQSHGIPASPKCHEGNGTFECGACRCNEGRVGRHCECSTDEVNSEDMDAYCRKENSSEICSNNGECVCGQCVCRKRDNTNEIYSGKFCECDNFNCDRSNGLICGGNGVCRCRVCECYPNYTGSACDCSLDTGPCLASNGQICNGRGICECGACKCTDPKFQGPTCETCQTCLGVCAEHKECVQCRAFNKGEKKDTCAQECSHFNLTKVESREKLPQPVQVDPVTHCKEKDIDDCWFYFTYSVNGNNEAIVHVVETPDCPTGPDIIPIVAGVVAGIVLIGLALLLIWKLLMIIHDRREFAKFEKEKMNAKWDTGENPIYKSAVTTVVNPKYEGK

B1: purified mouse VCAM-Fc (Fc fusion, UniProt P29533 25-698, looked up)
chain: FKIEISPEYKTIAQIGDSMALTCSTTGCESPLFSWRTQIDSPLNAKVRTEGSKSVLTMEPVSFENEHSYLCTATCGSGKLERSIHVDIYSFPKDPEIQFSGPLEVGKPVTVKCLAPDIYPVYRLEIDLFKGDQLMNRQEFSSEEMTKSLETKSLEVTFTPVIEDIGKALVCRAKLHIDQIDSTLKERETVKELQVYISPRNTTISVHPSTRLQEGGAVTMTCSSEGLPAPEIFWGRKLDNEVLQLLSGNATLTLIAMRMEDSGVYVCEGVNLIGRDKAEVELVVQEKPFIVDISPGSQVAAQVGDSVVLTCAAIGCDSPSFSWRTQTDSPLNGVVRNEGAKSTLVLSSVGFEDEHSYLCAVTCLQRTLEKRTQVEVYSFPEDPVIKMSGPLVHGRPVTVNCTVPNVYPFDHLEIELLKGETTLMKKYFLEEMGIKSLETKILETTFIPTIEDTGKSLVCLARLHSGEMESEPKQRQSVQPLYVNVAPKETTIWVSPSPILEEGSPVNLTCSSDGIPAPKILWSRQLNNGELQPLSENTTLTFMSTKRDDSGIYVCEGINEAGISRKSVELIIQVSPKDIQLTVFPSKSVKEGDTVIISCTCGNVPETWIILKKKAKTGDMVLKSVDGSYTIRQAQLQDAGIYECESKTEVGSQLRSLTLDVKGKEHNKDYFSPE
notes: also called VCAM-1; soluble VCAM-1; not shown: Fc part, detected with anti-Human Fc
binding result: binds
